± gives the standard deviation of the averaged measurements.

This data set relates to ATP. Nature of the data set: switch fluorescence ratio, 500 uM ATP over buffer (Cy3 cluster intensity, sum of 5 cycles each) (fold (ratio)); higher = stronger signal-on switching upon ATP binding; sequences stand for … in TCGTCGGCAGCGTCAGATGTGTATAAGAGACAGTTTTTTTTTTTTTTTTTTTTTTTTT…TC. Particulars: aptamer strand: ATP DNA aptamer (quencher-CACCTGGGGGAGTATTGCGGAGGAAGG + anchor), 100 nM annealed; ATP concentration: 500 uM. In a few lines:
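For every switch-domain sequence, the fluorescence ratio is the mean of per-cluster values, each being summed target-cycle Cy3 intensity over summed buffer-cycle Cy3 intensity. Clusters outside 100-1000 RFU were excluded. On a modified Illumina MiSeq flow-cell, the Cy3-labelled switching-strand clusters were annealed to 100 nM quencher-labelled ATP aptamer, imaged in selection buffer and then after 15 min with 500 uM ATP at 22 °C. Five such cycles were run, with NaOH stripping and re-annealing between them.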
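Also: ATP exposure 15 min at 22 °C before imaging.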

For CGTGGGGTTT, the switch fluorescence ratio turned out to be 0.989 ± 0.022. Consider CTGGGACGAT, for which the switch fluorescence ratio was 0.998 ± 0.03. With TATCAGAAGC the figure was 1.012 ± 0.01; with CAGTGACTGT, 0.98 ± 0.034. With GTTGGGTCAT the figure was 1.01 ± 0.045; with CGTGTGGTGG, 0.944 ± 0.032; with GACTCTTGCG, 0.964 ± 0.029.

ACTCGTGTAG: the switch fluorescence ratio was 1.04 ± 0.022. In the case of CCGCGGTCGT, the switch fluorescence ratio amounted to 1.3 ± 0.085. Consider GATATTGGTG, for which the switch fluorescence ratio stood at 1.024 ± 0.003. With AGTTAGGGTT the figure was 0.999 ± 0.039; with CATTTAGCTC, 1.07 ± 0.015. The result for TCCGCGGAG reads 1.15 ± 0.13. With CGTAACCTTG the figure was 1.023 ± 0.0071. GGTGAACCGT: the switch fluorescence ratio stood at 1.001 ± 0.0046. As to ATGTTCGGCG, the switch fluorescence ratio was 1.01 ± 0.036. With GGCCACGCTC the figure was 1.04 ± 0.043; with TAAGGGGCCA, 1.024 ± 0.0088; with CGGTTGTGTA, 1.03 ± 0.023.

Take TTGGCACAAT: the switch fluorescence ratio amounted to 1.05 ± 0.026. Consider TGGAAATACG, for which the switch fluorescence ratio worked out at 1.06 ± 0.013. Regarding ACTGGTATAG, the switch fluorescence ratio was 1.041 ± 0.0019.

Turning to TTCACTGGGG, the switch fluorescence ratio is 1.05 ± 0.012. For the sequence GCCGGGGGTT, the switch fluorescence ratio is 1.2 ± 0.21. For CGGGAGCTGT, the switch fluorescence ratio was 1.01 ± 0.072. With AGTTTCTTAG the figure was 1.015 ± 0.0019. With ATTTTTGGGC the figure was 0.993 ± 0.024; with CGGGACGTGT, 0.969 ± 0.021. As for AAGAGAGGCA, the switch fluorescence ratio came out at 1.02 ± 0.023. Turning to ATAATGTTTT, the switch fluorescence ratio worked out at 1 ± 0.021. With AGGTAACTGT the figure was 1.01 ± 0.051; with CAAAGTTCGC, 0.9838 ± 0.0076; with TGCTGGGGTA, 0.99 ± 0.024. With ATTTTATGAC, the switch fluorescence ratio worked out at 1.008 ± 0.0025. With AGCGGTCGGC the figure was 1.04 ± 0.018; with GCTATCGGTT, 1.01 ± 0.024; with CGTGGTGGG, 0.968 ± 0.029. AGGTTAGGGT: the switch fluorescence ratio came out at 0.969 ± 0.015.

In the case of ACTTAATTGT, the switch fluorescence ratio was 1.07 ± 0.084.

On to GATAGTGAGA, for which the switch fluorescence ratio is 1.03 ± 0.011.

As to TCCAAGGGAT, the switch fluorescence ratio worked out at 1.01 ± 0.012. With TGGGGATACC the figure was 0.987 ± 0.035. With TCACCAGGTA the figure was 2.163 ± 0.021; with TTGTGTAGTT, 1.01 ± 0.024. With TCGCTCCTGG, the switch fluorescence ratio turned out to be 1 ± 0.046. With TGGGAACTTG the figure was 0.991 ± 0.028. With GAGGGGTTTA the figure was 1 ± 0.027; with GAAGGTGATC, 1.01 ± 0.012. In the case of ATGTAATAGC, the switch fluorescence ratio stood at 0.989 ± 0.022. On to TATATAGGGG, for which the switch fluorescence ratio worked out at 1 ± 0.026. On to GAAAGTTCGC, for which the switch fluorescence ratio came out at 1.02 ± 0.038. The result for TGAAGATTTT reads 0.9704 ± 0.0081; that for TTAGTCACGC, 1.029 ± 0.0092; that for CGTGCTCTAC, 1.5 ± 0.068. With GGCCGCCGTC the figure was 1 ± 0.019. With TTTTTAGCAT the figure was 1.04 ± 0.084; with TGGCTGCCGT, 0.988 ± 0.032; with TTAGGCGAGG, 1.08 ± 0.16.

As to TTTCAGTCTA, the switch fluorescence ratio amounted to 1.03 ± 0.024. In the case of GGGGGTGCTC, the switch fluorescence ratio is 1.01 ± 0.023. For the sequence AACGCGAACG, the switch fluorescence ratio worked out at 1.06 ± 0.016. The result for ATCCGTAGGT reads 0.995 ± 0.029; that for TCGTAATGGT, 1.05 ± 0.083; that for ATTATGATGC, 0.992 ± 0.014.

On to GAGGGCGTCA, for which the switch fluorescence ratio worked out at 0.995 ± 0.027. With GGACCAAAAG the figure was 1.002 ± 0.0067.

Values taken from the supplement of paper PMC10126150.
